Earlier results on 16 substances are cited in article PMC6753016.

Read-outs that look alike come from different tables or passages of the source.

Series [1] addresses Cathepsin G (Homo sapiens) (UniProt P08311).
The target of series [2] is Chymotrypsin (Bos taurus) (UniProt P00766).
For series [3], the target named is Trypsin (Bos taurus) (UniProt P00760).
The target in series [4] is Plasmin (Homo sapiens) (UniProt P00747).
Series [5] concerns the target Factor XIIa (Homo sapiens) (UniProt P00748).
Series [6] has as its target β-Trypsin (Bos taurus) (UniProt P00760).
For series [7], the target named is Hageman factor (Homo sapiens) (UniProt P00748).
In series [8] the target is Trypsin (Bos taurus) (UniProt P00760). The source holds these as a separate data set.
For series [9], the target named is Factor XIIa (Homo sapiens) (UniProt P00748). The source holds these as a separate data set.
Series [10] deals with Cathepsin L (UniProt P07711).
Target sequence in this assay (P07711 114-288, chain 1 of 2): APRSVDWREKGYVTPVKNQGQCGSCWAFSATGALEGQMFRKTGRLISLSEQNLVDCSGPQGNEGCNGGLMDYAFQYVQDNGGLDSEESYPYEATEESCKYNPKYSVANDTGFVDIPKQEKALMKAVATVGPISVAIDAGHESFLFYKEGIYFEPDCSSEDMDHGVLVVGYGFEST
Target sequence in this assay (P07711 292-333, chain 2 of 2): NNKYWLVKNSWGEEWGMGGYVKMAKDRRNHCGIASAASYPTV
The target of series [11] is Leukocyte elastase (UniProt P08246).
Series [12] deals with Cathepsin L (UniProt P07711). This is another data set of the same source.
Target sequence in this assay (P07711 292-333): as the sequence (P07711 292-333, chain 2 of 2) above
The target in series [13] is Pancreatic elastase (Sus scrofa) (UniProt P00772).
The target of series [14] is Plasma kallikrein (Homo sapiens) (UniProt P03952).
Series [15] concerns the target Neutrophil elastase (Homo sapiens) (UniProt P08246).
Series [16] addresses Factor XIIa (Homo sapiens) (UniProt P00748). The source holds these as a separate data set.
Series [17] addresses Plasmin (Homo sapiens) (UniProt P00747). This is another data set of the same source.
The target of series [18] is Chymotrypsin (Bos taurus) (UniProt P00766). This is another data set of the same source.
The target of series [19] is Trypsin (Bos taurus) (UniProt P00760). This is another data set of the same source.
Series [20] deals with Factor XIIa (Homo sapiens) (UniProt P00748). This is another data set of the same source.
Series [21] concerns the target Kallikrein (Homo sapiens) (UniProt P03952).
Series [22] concerns the target Factor Xa (Homo sapiens) (UniProt P00742).
For series [23] the target is unchanged. This is another data set of the same source.
For series [24], the target named is Plasma kallikrein (Homo sapiens) (UniProt P03952). This is another data set of the same source.
Series [25] has as its target Trypsin (Bos taurus) (UniProt P00760). The source holds these as a separate data set.
The target in series [26] is Factor XIIa (Homo sapiens) (UniProt P00748). The source holds these as a separate data set.
Series [27] concerns the target Matriptase (Homo sapiens) (UniProt Q9Y5Y6).
Series [28] deals with Plasmin (Homo sapiens) (UniProt P00747). This is another data set of the same source.
Series [29] has as its target Trypsin (Bos taurus) (UniProt P00760). This is another data set of the same source.
For series [30], the target named is Kallikrein 4 (Homo sapiens) (UniProt Q9Y5K2).
In series [31] the target is β-tryptase (Homo sapiens) (UniProt Q15661).
The target of series [32] is Factor XIIa (Homo sapiens) (UniProt P00748). The source holds these as a separate data set.
The target in series [33] is Cathepsin H (UniProt P09668).
Series [34] concerns the target Cathepsin H (UniProt P09668). This is another data set of the same source.
Series [35] deals with Cathepsin L (UniProt P07711). The source holds these as a separate data set.
Target sequence in this assay (P07711 292-333): as the sequence (P07711 292-333, chain 2 of 2) above
The target of series [36] is Clostripain (UniProt P09870).
Series [37] has as its target Clostripain (Hathewaya histolytica) (UniProt P09870).
Series [38] has as its target Cathepsin B (UniProt P07858).
The target in series [39] is Cathepsin B (UniProt P07858). The source holds these as a separate data set.
Series [40] has as its target Dipeptidyl peptidase I (UniProt P53634).
Series [41] has as its target Cathepsin L (UniProt P07711). This is another data set of the same source.
Target sequence in this assay (P07711 114-288, chain 1 of 2): as the sequence (P07711 114-288, chain 1 of 2) above
Target sequence in this assay (P07711 292-333, chain 2 of 2): as the sequence (P07711 292-333, chain 2 of 2) above
For series [42], the target named is Carboxypeptidase B (Sus scrofa) (UniProt P09955).
The target in series [43] is Carboxypeptidase A (Bos taurus) (UniProt P00730).
Series [44] deals with Trypsin (Bos taurus) (UniProt P00760). The source holds these as a separate data set.
The target in series [45] is Chymotrypsin (Bos taurus) (UniProt P00766). The source holds these as a separate data set.
Series [46] has as its target Plasmin (Homo sapiens) (UniProt P00747). This is another data set of the same source.
The target of series [47] is Factor XIIa (Homo sapiens) (UniProt P00748). This is another data set of the same source.
Series [48] concerns the target Plasma kallikrein (Homo sapiens) (UniProt P03952). The source holds these as a separate data set.
The target of series [49] is Cathepsin G (Homo sapiens) (UniProt P08311). This is another data set of the same source.
Series [50] deals with Mast cell chymase (Homo sapiens) (UniProt P23946).
The target of series [51] is Trypsin (Bos taurus) (UniProt P00760). This is another data set of the same source.
The target in series [52] is Chymotrypsin (Bos taurus) (UniProt P00766). This is another data set of the same source.
The target of series [53] is Duadenase (Bos taurus) (UniProt P80219).
For series [54], the target named is Leukocyte elastase (UniProt P08246). The source holds these as a separate data set.
Series [55] deals with Trypsin (Bos taurus) (UniProt P00760). The source holds these as a separate data set.

Cruzipain inhibitor (BbCI), sequence (P83051 whole entry): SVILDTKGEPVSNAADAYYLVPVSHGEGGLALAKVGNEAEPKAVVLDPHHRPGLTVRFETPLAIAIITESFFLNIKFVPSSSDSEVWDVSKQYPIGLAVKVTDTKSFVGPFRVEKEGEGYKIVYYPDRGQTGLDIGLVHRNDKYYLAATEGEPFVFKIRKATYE
EcTI, sequence (P86451 1-134): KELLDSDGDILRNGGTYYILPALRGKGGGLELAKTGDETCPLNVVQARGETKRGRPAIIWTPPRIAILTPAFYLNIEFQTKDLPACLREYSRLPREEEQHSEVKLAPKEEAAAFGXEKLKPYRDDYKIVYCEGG
EcTI, sequence (P86451 135-174): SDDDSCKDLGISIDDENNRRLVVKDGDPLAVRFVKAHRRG
Trypsin (Bos taurus), sequence (P00760 149-246): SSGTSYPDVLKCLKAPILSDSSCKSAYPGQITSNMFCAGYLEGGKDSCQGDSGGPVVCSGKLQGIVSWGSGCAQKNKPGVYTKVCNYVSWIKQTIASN
Plasma kallikrein (Homo sapiens), sequence (P03952 391-638): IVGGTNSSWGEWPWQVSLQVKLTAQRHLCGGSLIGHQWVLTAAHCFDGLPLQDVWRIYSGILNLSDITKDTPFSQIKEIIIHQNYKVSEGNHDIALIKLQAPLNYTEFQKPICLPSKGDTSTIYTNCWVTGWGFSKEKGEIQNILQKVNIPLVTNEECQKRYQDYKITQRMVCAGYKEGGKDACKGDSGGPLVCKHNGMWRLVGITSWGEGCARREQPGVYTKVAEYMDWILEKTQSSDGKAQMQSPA
LLDTI-II, sequence (P26771 2-30): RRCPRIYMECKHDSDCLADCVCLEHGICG
Plasmin (Homo sapiens), sequence (P00747 581-810): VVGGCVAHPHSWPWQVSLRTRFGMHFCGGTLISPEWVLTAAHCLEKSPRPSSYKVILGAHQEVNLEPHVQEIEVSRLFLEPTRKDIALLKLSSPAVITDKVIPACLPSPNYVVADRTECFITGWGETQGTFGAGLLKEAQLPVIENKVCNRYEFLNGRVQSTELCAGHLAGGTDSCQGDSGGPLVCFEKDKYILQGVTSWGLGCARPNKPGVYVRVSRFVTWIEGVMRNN
LCTI-II, sequence (P25850 whole entry): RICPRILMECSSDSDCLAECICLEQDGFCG
MCoTI-II, sequence (P82409 whole entry): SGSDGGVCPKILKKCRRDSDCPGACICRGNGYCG
SKTI-31, sequence (P01070 25-205): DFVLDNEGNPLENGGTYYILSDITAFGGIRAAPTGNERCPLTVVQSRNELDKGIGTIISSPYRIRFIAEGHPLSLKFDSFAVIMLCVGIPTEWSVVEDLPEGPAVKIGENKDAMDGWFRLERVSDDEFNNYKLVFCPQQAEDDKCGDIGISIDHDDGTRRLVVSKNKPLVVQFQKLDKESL
ATSI, sequence (P80211 whole entry): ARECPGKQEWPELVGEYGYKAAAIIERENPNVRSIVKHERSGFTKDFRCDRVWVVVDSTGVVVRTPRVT
Factor XIIa (Homo sapiens), sequence (P00748 whole entry, looked up): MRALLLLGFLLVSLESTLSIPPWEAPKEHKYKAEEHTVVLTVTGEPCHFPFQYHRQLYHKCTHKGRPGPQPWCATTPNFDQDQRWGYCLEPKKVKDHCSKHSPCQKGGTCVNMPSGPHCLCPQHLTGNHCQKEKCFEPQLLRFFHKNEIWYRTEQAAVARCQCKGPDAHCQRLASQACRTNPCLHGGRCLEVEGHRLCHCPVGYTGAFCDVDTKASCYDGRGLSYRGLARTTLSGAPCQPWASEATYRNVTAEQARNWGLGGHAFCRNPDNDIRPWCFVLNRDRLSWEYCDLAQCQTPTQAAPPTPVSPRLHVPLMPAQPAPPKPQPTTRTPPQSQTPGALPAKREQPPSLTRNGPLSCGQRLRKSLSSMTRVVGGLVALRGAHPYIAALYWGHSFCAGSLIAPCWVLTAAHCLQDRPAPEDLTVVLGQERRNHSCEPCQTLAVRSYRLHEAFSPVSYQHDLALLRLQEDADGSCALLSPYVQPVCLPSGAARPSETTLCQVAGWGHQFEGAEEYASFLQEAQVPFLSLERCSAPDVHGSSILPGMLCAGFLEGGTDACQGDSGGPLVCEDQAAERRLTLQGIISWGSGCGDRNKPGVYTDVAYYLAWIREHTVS
Soybean BBI, sequence (P01055 40-110): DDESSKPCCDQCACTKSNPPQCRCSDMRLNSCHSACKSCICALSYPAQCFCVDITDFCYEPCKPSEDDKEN
Cathepsin G (Homo sapiens), sequence (P08311 21-243): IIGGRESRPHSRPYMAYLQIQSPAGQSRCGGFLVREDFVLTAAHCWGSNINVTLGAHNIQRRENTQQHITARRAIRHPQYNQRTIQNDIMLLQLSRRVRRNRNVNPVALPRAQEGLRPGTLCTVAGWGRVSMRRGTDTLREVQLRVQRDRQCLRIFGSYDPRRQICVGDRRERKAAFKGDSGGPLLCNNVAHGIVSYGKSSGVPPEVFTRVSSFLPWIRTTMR
CMTI-V, sequence (P19873 whole entry): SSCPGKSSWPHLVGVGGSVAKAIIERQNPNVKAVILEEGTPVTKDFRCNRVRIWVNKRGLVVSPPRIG
Leukocyte elastase, sequence (P08246 30-267): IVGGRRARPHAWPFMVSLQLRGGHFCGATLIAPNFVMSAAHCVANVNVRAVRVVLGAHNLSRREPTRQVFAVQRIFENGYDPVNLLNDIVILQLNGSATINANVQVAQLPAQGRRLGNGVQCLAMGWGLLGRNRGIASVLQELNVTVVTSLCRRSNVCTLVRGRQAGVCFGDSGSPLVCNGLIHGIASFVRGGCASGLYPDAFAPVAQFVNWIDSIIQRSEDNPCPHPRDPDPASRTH
Enterolobium EcTI, sequence (P86451 1-134): as the sequence (P86451 1-134) above
Enterolobium EcTI, sequence (P86451 135-174): as the sequence (P86451 135-174) above
CMTI-I, sequence (P01074 whole entry): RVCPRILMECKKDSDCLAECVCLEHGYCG
Oryzacystatin-II, sequence (P20907 whole entry): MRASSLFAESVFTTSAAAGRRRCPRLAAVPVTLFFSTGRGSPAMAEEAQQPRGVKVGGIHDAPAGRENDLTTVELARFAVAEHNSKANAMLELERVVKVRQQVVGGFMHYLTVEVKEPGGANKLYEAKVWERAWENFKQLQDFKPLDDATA
Factor Xa (Homo sapiens), sequence (P00742 235-488): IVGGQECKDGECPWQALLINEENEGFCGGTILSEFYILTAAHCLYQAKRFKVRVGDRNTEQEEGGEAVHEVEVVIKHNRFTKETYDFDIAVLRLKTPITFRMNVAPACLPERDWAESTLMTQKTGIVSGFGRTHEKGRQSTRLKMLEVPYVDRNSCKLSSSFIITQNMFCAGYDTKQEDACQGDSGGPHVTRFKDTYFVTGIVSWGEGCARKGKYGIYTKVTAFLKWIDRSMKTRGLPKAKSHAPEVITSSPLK
Potato CPI, sequence (P01075 whole entry): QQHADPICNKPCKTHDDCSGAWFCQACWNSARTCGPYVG
Clostripain (Hathewaya histolytica), sequence (P09870 51-181): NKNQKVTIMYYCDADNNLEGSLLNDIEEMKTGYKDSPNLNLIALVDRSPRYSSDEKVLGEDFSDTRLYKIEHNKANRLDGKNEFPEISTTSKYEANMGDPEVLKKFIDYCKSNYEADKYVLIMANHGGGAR
Clostripain, sequence (P09870 51-181, chain 1 of 2): as the sequence (P09870 51-181) above
Clostripain, sequence (P09870 191-526, chain 2 of 2): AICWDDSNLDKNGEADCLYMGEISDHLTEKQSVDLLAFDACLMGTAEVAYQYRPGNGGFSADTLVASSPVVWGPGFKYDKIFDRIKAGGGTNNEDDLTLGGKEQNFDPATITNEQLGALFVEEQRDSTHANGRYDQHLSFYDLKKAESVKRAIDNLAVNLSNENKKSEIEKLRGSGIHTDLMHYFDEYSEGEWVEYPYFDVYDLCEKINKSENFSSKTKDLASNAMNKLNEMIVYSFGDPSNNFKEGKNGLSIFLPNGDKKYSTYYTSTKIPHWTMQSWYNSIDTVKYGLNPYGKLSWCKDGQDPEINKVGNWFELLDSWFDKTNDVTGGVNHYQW
RATI, sequence (P01087 whole entry): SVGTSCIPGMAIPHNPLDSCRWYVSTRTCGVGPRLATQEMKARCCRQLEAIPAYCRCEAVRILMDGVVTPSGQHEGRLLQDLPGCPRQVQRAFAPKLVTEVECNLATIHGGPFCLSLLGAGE
Neutrophil elastase (Homo sapiens), sequence (P08246 30-267): as the sequence (P08246 30-267) above

For the substance ATSI (from UniProt P80211), the Ki (commonly a measure of affinity in units of concentration, obtained from inhibition or displacement) in series [1] is 120 nM; in series [2] it was 0.41 nM; in series [3], 0.34 nM; in series [4], 38 nM; in series [5] it was 440 nM.
As for CMTI-I (from UniProt P01074), the results for the Kd in [6] and in series [7] were 13 nM and 41 nM, respectively.
Consider CMTI-V (from UniProt P19873), for which the Ki is 16 nM in series [8] and 41 nM in series [9].
As to “Cruzipain inhibitor (BbCI) (from UniProt P83051)”, the Ki in [10] was 2.2 nM; in series [11], 5.3 nM; in series [12], 2.2 nM; in series [13], 4 nM.
Turning to EcTI (from UniProt P86451), the Ki is 6.1 nM in series [14], 55 nM in series [15], 82 nM in series [16] and 9.4 nM in series [17].
For Enterolobium EcTI (from UniProt P86451), the figures for the inhibitory constant (Ki) in [18] and in [19] were 1.1 nM and 0.8 nM, respectively.
For LCTI-II (from UniProt P25850), the figures for the Ki in series [20], in series [21] and in series [22] were 75 nM, 0.096 nM and 780000 nM, respectively.
As to LLDTI-II (from UniProt P26771), the Ki is 41000 nM in [23], 27000 nM in [24], 0.096 nM in series [25] and 1400 nM in [26].
Consider MCoTI-II (from UniProt P82409), for which the Ki in series [27] is 9 nM; in series [28], 28 nM; in series [29], 0.0023 nM; in series [30], 1.6 nM; in series [31], 600 nM; in [32], 750 nM.
As for Oryzacystatin-II (from UniProt P20907), the inhibition constant Ki in series [33] and in series [34] was 25 nM each time.
Regarding PCPI 8.3 (from UniProt P20347), the Ki in series [35] was 0.07 nM; in [36] it was above 500 nM; in series [37], above 500 nM; in series [38] it was 320 nM; in [39], 320 nM; in [40], above 500 nM. In addition, in series [41], the Ki is 0.07 nM.
Consider Potato CPI (from UniProt P01075), for which the inhibition constant (Ki) in series [42] is 4 nM; in series [43] it was 2 nM.
In the case of RATI (from UniProt P01087), the inhibitory constant (Ki) in [44] is 1.2 nM.
In the case of SKTI-31 (from UniProt P01070), the inhibitory constant (Ki) in [45] was 70 nM; in series [46] it was 190 nM; in series [47] it was 1400 nM; in series [48], 5.7 nM.
For Soybean BBI (from UniProt P01055), the Ki in [49] is 6400 nM; in [50], 0.5 nM; in series [51], 4 nM; in [52], 29 nM; in [53], 0.4 nM; in [54] it was 2.3 nM.
As for VhTI (from UniProt P85981), the inhibition constant (Ki) in [55] is below 1 nM.
